Data on one molecule can be found in publication PMC10866549 (Science Advances, 2024).

The target in this experiment is T1, NRF2-His (his-tag mouse NRF2) (mouse, UniProt Q60795 1-597).
T1 sequence (looked up): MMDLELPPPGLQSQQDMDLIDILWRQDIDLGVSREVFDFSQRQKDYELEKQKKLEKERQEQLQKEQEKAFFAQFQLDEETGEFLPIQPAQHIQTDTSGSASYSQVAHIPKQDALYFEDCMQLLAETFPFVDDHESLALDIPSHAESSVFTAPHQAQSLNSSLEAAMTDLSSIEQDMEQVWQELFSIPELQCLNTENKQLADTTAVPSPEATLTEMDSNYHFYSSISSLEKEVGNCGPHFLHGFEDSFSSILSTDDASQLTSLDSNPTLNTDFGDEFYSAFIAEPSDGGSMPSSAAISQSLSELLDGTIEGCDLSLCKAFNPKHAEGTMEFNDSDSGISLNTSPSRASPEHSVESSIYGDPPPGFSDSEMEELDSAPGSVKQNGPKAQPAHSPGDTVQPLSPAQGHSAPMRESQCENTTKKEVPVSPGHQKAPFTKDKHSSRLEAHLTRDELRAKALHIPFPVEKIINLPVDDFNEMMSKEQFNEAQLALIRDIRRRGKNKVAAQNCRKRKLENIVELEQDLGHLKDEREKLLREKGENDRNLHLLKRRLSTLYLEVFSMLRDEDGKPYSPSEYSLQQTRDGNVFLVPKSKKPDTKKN
In words: pull-down.

B1: p53R245W-Flag (natural protein, mouse, UniProt P02340 1-390, looked up)
chain: MTAMEESQSDISLELPLSQETFSGLWKLLPPEDILPSPHCMDDLLLPQDVEEFFEGPSEALRVSGAPAAQDPVTETPGPVAPAPATPWPLSSFVPSQKTYQGNYGFHLGFLQSGTAKSVMCTYSPPLNKLFCQLAKTCPVQLWVSATPPAGSRVRAMAIYKKSQHMTEVVRRCPHHERCSDGDGLAPPQHLIRVEGNLYPEYLEDRQTFRHSVVVPYEPPEAGSEYTTIHYKYMCNSSCMGGMNWRPILTIITLEDSSGNLLGRDSFEVRVCACPGRDRRTEEENFRKKEVLCPELPPGSAKRALPTCTSASPPQKKKPLDGEYFTLKIRGRKRFEMFRELNEALELKDAHATEESGDSRAHSSYLKTKKGQSTSRHKKTMVKKVGPDSD
For B1, the binding result was “binds”.
